# Data as given in the DeepSol protein solubility set.
# Assay: soluble on expression in E. coli; label from the status in PepcDB or PDB records
row,Sequence,soluble on expression in E. coli
1,MAHHHHHHMGGCVVSVMAKRNAAQVMPDPRAEALERRRAQCGGNFVQRVPGTESEHASAIYRIAGVTAEQHEAILAAAAARPTFYTTLMRHCAERTDQRVLGYRPVKCVTKEPAPSKSSGSTSEPAKKERLMSITHFDEVVHVTYSEMEERIFHFGAGLAALGVTANGNVSIYLDTCVEWLIGIYGIWSCSAVAATVYANLGEAALAHALHETESQAILCGSVNVANVLKLMKNGVMPQVPIIHVGALPASLDTHGVQVVSFKQVEMIGAAHLEGGAAKGTGPLNDDDLALIMYTSGTTGDPKGVMHTHRTLAAGLHTLEPRVIDLLGQPRPDDVYLSYLPMAHIMEFTITNLFIFRGAFIGFGTPRTLTDTTARPHGDLLTFNPSMLAGVPRIFDTLKKAVEAKLPPVGTLKRQVFDHAYQSRLAAMKEGKDTPFWNEKVFAAPRAVLGSRLRIMLSGGGPLSAATHEFVNVVFGRVVIGYGLTETICVGAIQIPGDTETNVTGLMEPGQEIKLLDIDEYKHTDTPEPRGEMLSRGPYLFKGYYKQPELTREVLDEDGWFHTGDVGSFTADGKMRIVGRVKALAKNCLGEYIALEALEAVYSSNELLQPNGVCVLVHPDKPYITALALTDEARATSFAAKHGIEGTYPALLKDQRFQQAAAISMADTARASNRASFECVKRVRVIDDEWTPENEILTAAQKLKRRVIDAQYAQTIAELFADD,not soluble
2,MAHHHHHHMGGPPTIEELKREKIIPHVFPDENVDLTVDMYISFKSGKEVNHGNILDLAGTGSVPRNIKFSEEPPEDYCYILFMIDPDFPSRRRPDGRDYVHWAVSGIKSKELVKGTDKNCITLLPYVGPSIKKGTGLHRISFILSLVKEENKGNVTGVPLYRGEHYITRVKFNNCQSAYNVIQMNDMKIVGFNWCQMRRK,soluble
3,MAHHHHHHMGISVSHLLERLRTLFEPLEVVCALQLKCLLETRQLDYCNVSLNELQRAEAGLRSLLVDHPLDIEVGAQWEHLEDELQRLHVRFSVPVPTFRLLVRRSARALRSAVRALGWDGKIQRRLWQEEGEEPRDDGVQEPLRAFDAGGLSTCTVDEICNEGGVQDRSAAVFSAVAKLYHHRLALGAQSLVAAERLGPALGANVRAASRVPSLTLPNSAADPTHPRFKADLYAVSPDALSCTAARREAYAAS,not soluble
4,MAHHHHHHMGKVKKQANHAIKKILMKEKSLAMKKKREAESYHETPESNTTTQATKDYAAVLFRKALVTQAAPTRTAHFLSYNTALGPPYRIWLDTNFINFSMQNKIDIVQGLMDCLLAKVIPCICDCVFAELEKLGKKFRIALKLARDKRFERLTCDSKYADDCVVRTVTQHPIYIVATCDQELKRRLRKVPGVPIMYIAKHRYTIERLPEAYGAPE,not soluble
5,MAHHHHHHMGLTDLFRRETPQERIRMYKRQLDRTCRDLDRERNKLSTQERKIMMEMKKMAKQDQVDAVRIMARDLVRTRKYNQKMYRMRTQIQGVSLRMQTMQSSAQMADAMKGVTKAMRSMNKKMNIPEIQKIMREFEKQNEMMGMKEDMMNDAVDEVMDDDGMEEEETEQEIQKVMDEAGLEFRTKVGVTDTALPQKSTETQGETDEELDARLAALKASMK,soluble
6,MAHHHHHHMGNTTDPGAAPLHSSGFFKISARFPKAAVAASGAGPSLKRRRAEAFVVGDDGVPTLRTTAIAPGEQVGGDGTAEPFEFFKAQQDAFMNDIEGIKDAQLQRFNRKARRIMKSRRAWASSSSSGRHANSQQHSSSSGTHVTGSGALSKTGAKKTKPKRY,soluble
7,MAHHHHHHMGRASKDKRDIYYRKAKEEGYRARSAYKLLQLHEEFGILRREEIRTGVVDLCAAPGSWSQVLSNHLCGSQPGSAAEACEGDEAINSEASQRPRIVAVDLQEMMPIDGVQLLQGDITSEWTAREIIRLLNGDSSSVPECSDATALSTAGAINDFNNGRGNNVSEEGKSSQQRSDCGVGLMNERNNASECVDGDNNNNNSNNNDDRNGGDAGASTRPVAGRKADLVVCDGAPDVTGMHELDEYLQHHLLLAALNITTFVLRRGGTFVTKMFRGPNTPFLVAKAEVFFRQVTIAKPKSSRNASMEAFMVCQNYDPPASYQPSFERPLTQTTSCFTPAAPALHLAAVDAQRMSSDNVNNGELHHSGVTDIVDEAYAVESVIVPFLACGDLTGYDADMCYDRGESDVVLPPVQPPLQAPYIAISEAVKERTKRQRVG,not soluble
8,MAHHHHHHMGSTGRKAVDEINHWIAYIDCALSHPHPLPKGKHVFRSDLSTVPEVRDIYDCLYKLYAEESASASFREPVNALELGVFNYYEVVTEPMSLRTVLDRIAEGGHYSQASQVLADVEKIWSNCEKYNGADSALVKEAKKCQGILTRLRERLAEEQPAPNAELDKIISAFESADESVLGELEAYFRREDPSLIISNGDVDLTALRVKHLKAMKAILERAMNGGGGRG,not soluble
9,MAHHHHHHMGTLEAQTQGPGSMLEKKTFKSSHTNAFHDFQARVYVADTDFSGVVYHARYLEFFERGRSEFLRDTGFNNTLLASGVEGEKLFFVVRHMEINFSRPAQIDNLLTIKTRISRLQGARFFMEQYILHGESMLVTAKVEIALINEEGKPRRLPKELFSTIVV,soluble
10,MAHHHHHHMGTLEAQTQGPGSMNDYKLFRCIQCGFEYDEALGWPEDGIAAGTRWDDIPDDWSCPDCGAAKSDFEMVEVARS,soluble
11,MAHHHHHHMGTLEAQTQGPGSMVTAEAIDQRTFRRVLGQFCTGVTIITTVHEGNPVGFACQSFAALSLDPPLVLFCPTKVSRSWKAIEASGRFCVNILHEKQQHVSARFGSREPDKFAGIDWRPSDLGSPIIDGSLAHIDCTVHDVHDGGDHFVVFGKVHGLSEVPERKPRPLLFYRGEYTGIEPEKNTPAQWRDDLEAFLTATTADTWL,soluble
12,MAHHHHHHMIGELVLLIGDFHSPMRNLGLPDCFKDLLKTDKIKHVLCTGNVGCRENLELLKNIADSVHITKGDMDDEYDFPEDTSLTIGDFKISLIHGHQIIPWGDTNALLQWQKKYDSDIVISGHTHKNSIVRYEGKYFINPGSATGAFQPWLSQPTPSFILMAVAKSSIVVYVYEEKNGKTNVEMSEL,soluble
13,MAHHHHHHMKARSSRPVTTITVTSEETIQTHNARDTPRTFEYKTKRNELMRRLEEMRNALEEDNNNNNKGSRVKLCYYDITFNCRDPVDVTVMSGFQRFEGLGDTLSGHMKCEEDDRHKFVGLIKEIIQLDVSHRARNMDKSEIAVVRIAANFKELNSTFTRSAATLL,not soluble
14,MAHHHHHHMKEARKGPCVPWQQNYARWQHTTPVNHVTVMIALDTMNKDRGAPCLVPGSHRWREGGLLPSVPYDPAKDEAQQLNTIWEITNEEESEMLMDTPPATVDMKRGEALLIHPLTLFATHGNRSLDAVRCCFIHYMGGKTYATQNGPLLPHTTQFQAGAMIQGPFYPVVFDPAMTEELAMLPGESAAQNDITEEV,not soluble
15,MAHHHHHHMKHIATQHHRGVVADPQPIHRNTRRAVKVQTRPRDQPRDREAVPADRDVRVRWKITLRAEQRVTKCVTGDDDVQRPHSGVRIAQQQQHGAVPPRASIERDVRHVARHRTNQHRQAHAAPAERHVAVAQPRQPAAHSLRNLGVHHVADALTNRRWRWCGRRWRWRWRRGQWRRASRHRRRDARIAVPSSSALALAANDRRRQRCKAVALLRALPARSNRRHVGDAVELQLCRRRQQTSRDRQAPSNEPVTGVNPR,not soluble
16,MAHHHHHHMKINLSFNKNKENKNRNKNGDTDIDNDTRNNKSYKENNPMTRNKIETIFSMSDDEETINYENTHNKIIQQKKENQLNDKIKEYIKEHEEPALTTHEKKEDKKERIDEKNNKKKIQYLGYKSNELTKLNNPKTDDSYDYPFEEKEIYDNLDEKERKKKTIEHNDKDGHEYYKKDHKNHKKYTRSHENDNEVNAYNKDCDVRNKTIDKKTYMKKYDKNIQDYEKKKKKSENSDDDVNRSYLCIDDIFKKKENIDGKKKSKYMEALINSAKRRELEKEFLIQKKQKIDTEKEEKVFVTSAYKKKLMDRELIKKDMDLEVEEKKVDKSSNYNLNLFLKNINAPSNYNRYNRR,soluble
17,MAHHHHHHMKLLKVSPEKNIEFPLVHFQAVTQVVKLENISDRKVAFKIKTTAPNNYLVRPSFGLINVKETIDIQIILQPLSDKDNISNDKFQVQCLNVDDDTTVDKQFWVTVNKNEIQDHKLVVVLNDESFSKGPHSYLPPNNNPLTEINNKGHNLNYGENNLNADDANMAEGTNQRRPHRVCAAV,soluble
18,MAHHHHHHMKNALEQLDRHPLVNFQMDVSPLYSALKNIMQEQIQQAQLQEKISQRLTNLEAEVRSVGVRQKEFEDSLDALTPDAKLQTQQTLKELSTNIKNLTSDMKKVRYDVGEAMRTAVDAKRGIHDLESELLSIRQQQRDFSDLHQEVMREHLKFTAAVKDIRWKIEEQEKLIQEFSQVKPQNTSEVDESKLHGMLSALCERTDQNFRSVEESSFAVDAELTRLRADMKFVQNEVRMLRSELHRGGNHLRRDVGCRRQSPHGGSQGADKSALRNEEHLNGYESASTQGAL,not soluble
19,MAHHHHHHMKVDSLLSPRSAFSTENDPCGSVESVANDVASASDVVVAYPQPGKRWSRIIAGPELVGMSLKENQIKDGKALCIYGHCFDDGIIDYITNEVLPEARVLTKVEIAETKFSSAGMKILLRALWTNSPCEQMEELLLHDVHLHFEETLQLKEVIMKNRKCLRRLVLQRCHMDDSAAEPIVQAISHCEQLREVNFLDNNIVHALAIPTEREDIFPPTLQIFDISGNRIEPKHFTGLGNALRRCMANLHEVYLARCCVTESGLKTLLCGGLYNSQVLSVLNVSAGRLLHTAGKVLSSVISECPNLQRVYMQDNLLDVEGAAQIALVIPYAKKLTVLGMGRCHLGGRGARYIAEAVKQSASLRELDLSGNGVTDEDVHRICACNDDASFRLSYLDLSDNPLTEDCRCSLETLLEHQKDNSCIVVVRGTGLAVVSSYMEYHNKPTPG,not soluble
20,MAHHHHHHMLPILLSTLEKDESATLRERAGMALELLVREAQTQRLLLGGGSSEDAPLSTLAGKQTAPTPHLAAILASLRDESDEVVVAALRVVLACHMAHNAFSVTAALVQGGLIPVLIDLIQSTNTMTQMVACCATRQLFQVKEAHVELLKLGIVATLTKAIIKAEAVALVAEAAEVASLIAEYAQGRRDAVACGTLASLLPHLHNANLTLRVAVYSAAAQITVLEAAKVQAMEVGYPEQLVGELAREDERDVLMHMLRLIYNLAEWPTARVTLRECLPRIAELLQIAEGDEGVMFALSQADRILKKKVFPV,not soluble
21,MAHHHHHHMLRCSMLRRSMGPGASYVNTVFDTVAKRYDLMNDLLSLGIHRRWKQHFVNDYVRPCPGGKFLDVAGGTGDIAFRIIDGVRLKEEVFGLVPTLRYLTEVVVLDANENMIREGEARAAREGYLDVKWVIGKGEELPFDDMSFDSYTVSFGIRNFSDRPKALREAYRVLKVGGVLNVLEFSKVTCPFLSLPYDVWSYGFIPMAGQILVDRESYQYLVDSIRAFPDQEEFAKMISDAGFGYVRYENLTGGIACIHTAVKTEAVRVKPEKSPLESVATKAKEEKNSVDDEQLNPA,not soluble
22,MAHHHHHHMLRGLVNADALTSEQEEHIDQLQHEIDEIWNRRGNYQVDPDAWETMPFFMENITEEDIDKNANCAALASIVYEEVPPDEIAENRKEHGNRALNMALNPNQERRENLARAACYSYTEALQAKGKNTKLSSTIYANRSLAQFIVGNYGHALADAQRSIILDPNYRKAYYRAAKCAFALKKYDMGLQMLEKGRRVVDPPMDAAAQAEFLEMETNCLQGKEQQASEEAKQRRAARSQAAKVSNVARAITSSGIKISSRAEVTSEQMGVYGNPKPYFDTDGMLHVPLLFMYDEYQQTDIMHDVACDVCAAELLDELMPFPWDDRGRYQRLADIVVFFKIDDGANDVQYYEVDQSWPLLEVFREETYEMPQLMPVLHVVCKTSELVDRLEIHRVA,soluble
23,MAHHHHHHMLRIGICHFSRQEPQVIGTSVPSFRHFPYRAQDVLHLYRDFLRLIHQHPPQERADLLFRLHNEFYRRRHLTSPKMITGAIKRGEGILNVQRSMLESKTLRARGVSSREQGAQNVDGLWDQLQMLSGHVLPGLRNFRPSRNVLKGSYTQQATTQAVYSRRRL,not soluble
